Test results taken from the nanobody polyreactivity screen of Harvey et al. (2022).

Assay: yeast display, Sf9 membrane polyspecificity reagent, FACS + sequencing; frameworks hold sequencing errors
Method in brief: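 Genes from sorted yeast were amplified by colony PCR, read by MiSeq 2 × 250 sequencing and filtered on CDR length. These cells carried a synthetic nanobody library in Saccharomyces cerevisiae BJ5465 and were sorted by FACS into low and high (top ~1%) gates on anti-HA and streptavidin fluorescence. Polyreactivity is labelled according to the gate of origin.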

Sequence	polyreactivity (PSR sort gate)
QVQLVESGGGLVQAGGSLRLSCAASGRTFRPYAMGWYRQAPGKERELVAAIDSSGTSTYYADSVKGRFTISRDNAKNTVYLQMYSLKPEDTAVYYCAKAWPDHWYSRYDYWGQGTQVTVSS	low polyreactivity
QVQLVESGGGLVQAGGSHRLSCAASGRIFRPYAMGWYRQAPGKEREFVATITRSVGRTYYADSVKGRFTISRDNAKNTVYLQMNSLKPEDTAVYYCATKYIRGTRADVYRFDYWGQGTQVTVSS	high polyreactivity
QVQLVQSGGGLVQAGGSLRLSCAASGLTLRGNTMGWYRQAPGKEREMVADITASAGSTYYADSVKGRFTISRDNAKNTVYLQMNSLKPEDTAVYYCATVRYDVAAWAYSEYYYWGQGSQVTVSS	low polyreactivity
QVQLVESGGGLVQAGGSLRLSCAGSGIIFFPYAMGWYRPAPGKERELVASINISDSSTYYADSVKGRFTISRDNAKNTVYLQMNSLKPQDTAVYYCAADNRGDSWYWHGYWGQGTQVTVSS	low polyreactivity
QVQLVDSGGGLVQAGGSLRLSCAASGSIYGFYAMGWYRQAPGKERELVATIRTSGGNTYYADSVKGRFTISRDNAKNTVYLQLKSMKPEDTAVYYCAAAGYLYSGDVHYLYTYEYWGQRTQVTVSS	low polyreactivity
QVQLVESGGGLVQAGGSLRLSCAASGSIFKQNTMGWYRQAPGKETELVAAISSGGSTYYADSVKGRFTISRDNAKNTVYLQMNSLKPEDTAVYYCAKYYDWDYYLPLEGDYWGQGTQVTVSS	low polyreactivity
QVQLVESGGGLVQAGGSLRLSSAASGFTVKYNTMGSSRQAPGKEREMVAAISWDGTSTYYADSVKGRFTISRDYAKNTVYLQMNSLKPEDTAVYYCATDAVGAWWSYLSGYGYWGQGTQVTVSS	high polyreactivity
QVQLVESGGGLVQAGGSLRLSCAASGITFDGNAMGWYRQAPGKERELVAAITSGGSTYYADSVKGRFTISRDNAKNTVYLQMNSLKPEDTAVYYCAKEPPPVKGDYWGQGTQVTVSS	low polyreactivity
QVQLVESGGGLVQAGGSLRLSCAASGSTSPGYAMGWYRQAPWKERELVAAITFRGTRTYYADSVKGRFTISRDNSKNTVYLQMNSLKPEDTEVYYCNVVGYGPNRGRVDYWGQGTLVTVSS	high polyreactivity
QVQLVESGGGLVQAGGSLRLSCAASGNTFVYYAMGWYRQAPGKERELVAAISSSGGRTYYADSVKGRFTISRDNAKNTVYLQMNSLKPEDTAVYYCAARGPYTTKAYDYWGQGTQVTVSS	high polyreactivity
QVQLVESGGGLVQAGGSLRLSCAASGYTFQKYAMGWYRQAPGKERESVAAITRSGTRTYYADSVKGRFTISRDNAKNTVYLQMNSLKPEDTAVYYCAAETYYSIYDYWGQGTQVTVSS	high polyreactivity
QVQLVQSGGGLVQAGGSLRLSCAASGLIFYPYAMGWYRQAPGKERELVAAITSGDSTYYADSVKGRFTISRDNAKNTVYLQMNSLKPEDTAVYYCNAYQWGGRYWLVTYDYWGQGTQVTVSS	low polyreactivity
QVQLEDSGGGLVQAGGSLRLSCAASGFTFYSYAMGWYRQATGKERELVAAISWSGTRTYYADSVKGRFTISRDNAKNTVYLQMNSLKPEDTAVYYCAARGYRYGYGYWGQGTQVTVSS	high polyreactivity
QVQLVESGGGLVQAGGSRRLSCAASGSTFRRYAMGWSRQAPWKERELVAAISGRGGSTSYADSVKGRFTISRDNAKNTVYLQMNSLKPEDTAVYYCNARGYPSRFKYYYWGEGTQVTVSS	high polyreactivity
QVQLVESGGGLVQAGGSLRLSCAASGSTSGSNAMGWYRQAPGKERELVAGISYSTADTNYADSVKGRFTISRDNAKNTVYLQMNSLKPEDTAVYYCATDPFGIASRHDDYWGQGTQVTVSS	low polyreactivity
QVQLVESGGGLVQAGGSLRLSCAASVFIFDRYAMGWYRQAPGKERELVAAISSGGSTYYADSVKGRFTISRDNAKNTVYLQMNSLKPEDTAVYYCAAESWLNFIYEYDYWGQGTQVTVSS	low polyreactivity

Sequence	polyreactivity (PSR sort gate)
QVQLEESGGGLVQAGGSLRLSCAASGSIFSRNAMGLYRQAPGTERELVAVITRSGSTNYADSVKGRFTISRDNAKNTVYLQKKSLTPQDTAVYYCNADQDAYYLVSIATYDYWGQGTQVTVSS	low polyreactivity
QVQLVESGGGLVQAGGSLRLRCAASGFIFNYYALGWYRQAPGKERELVAAINSGGNTYYADSVKGRFTISRDNAKNPVYIKMNTLKPEDTAVYYCNRDPESVGYDYWGQGTQVTVSS	low polyreactivity
QVQLVESGGGLVQAGGSLRLSCAASGSTLDGYGMRWYRQAPGKERELVAVITIGGGRTYYADSVKGRFTISRDNAKNTVYLQMNSLKPEDTAVSYCAAKGWRRYYIGDYWGQGTQVTVSS	high polyreactivity
QLQLVESGGGLVQAGGSLRLSCAASGRIFGVYVMGLYRQAPGKERELVAAISWSGSHTYYADSVKGRFTISRDNAKNTVYLQMNSLKPEDTAVYYCNADSYPDYTGPGLDWYDYWGQGTQVTVSS	low polyreactivity
QVQLVESGGGLVQAGGSLRLSCAASGSIFPDYAMGWYRQAPGKERELVAGISSNSGSTYYADSVKGRFTISRDNAKNTVYLQMTSLKPEDTAVYYCAKDSFWRDTGYTDGDYWGQGTQVTVSS	low polyreactivity
QVQLVESGRGLVQAGGSLRLSCAASGITFYTYAMGWYRQEPGKARELVATISSGGSTDYADSVKGRFTISRDNAKITVYLQMNSLKPEDTAVYYCADQYSYRIYYLYDYWGQGTQVTVSS	low polyreactivity
QVQLVESGGGLVQAGGSLRLSCAASGSIFTRYAMGWYRQAPGKERELVADIRTRGGGTYYADSVKGRFTISRDTAKNTVYLQMNSLKPEDTAVYYCAKLWYHVYGSSPYGYWGQGTQVTVSS	high polyreactivity
QVQLVESGGGLDQAGGSLLLSCPASGRTFGTYAMGLYRQAPGKERELVASITSGDSTNYADSVKGRFTISRDNAKYTVYLQMNSQKPEDTAVYYCNASGYVMVTPPKLSFNYEYWGQGTQVTVSS	low polyreactivity
QVQLVESGGGLVQAGGSLRLSCAASGSTFVWYAMGRYRLAPGKERELVAVIDWSGGSTSYADSVKGRFTISRDNAKNTVYLQMNSLKPEDTAVYYCNKGSSLFHWYYHWGQGTQVTVSS	low polyreactivity
QVQLVESGGGLVQAGGSLRLSCAASGSTFLYNTMGWYRQAPGKESELVATITSRGDRTYYADSVKGRFTISRDNAKNTVYLQMNSLKPEDTAVYYCNAYGGNYPQSYRYYYWGQGTQVTVSS	low polyreactivity
QVQLVESGGGLFQAGGSLRLSCAASGFTIEWYAMGWYRQAPGKERELVATITSSGDSTYYADSEKGRFTISRDNAKNTVYFQMYSLKPEDTAVYYCNVDNSVYDFSEYVYWGQVTQVTVSS	high polyreactivity
QVQLVESGVGLVQAGGSLRLSCAASGSIFKYYAMGWYRQAPGKERELVAAISSNGGRTYYADSVKGRFTISRDNAKNTDYLQMNSLKPEDTAVYYCARRYRRTGESEYDYWGQGTQVTVSS	high polyreactivity
QVQLVESGGGLVQAGGSLRLSCAASGRIFRRNTKGWYRQAPGKERELVAAITSAGGSTYADSVKGRFTISRDNAKNTVYFQMNSLKPEDTAVYYCATYVAYHRGYRTYDHWAQGTQVTVSS	low polyreactivity
QVHLVESGGGLVQAGGSLRLRCAASGSISGRYAMGWYRQAPGKERELVAAISWIGGSTYYADSVKGRFTISRDNAKNTVYLQMNSLKPEDTAVYYCNVSIDTRTHPLLVVFYGYDYWGQGTQVSVSS	low polyreactivity
QDQLVESGGGLDHAGGSIRLSCAASGFISKYYAMGWYTQAPGKERELVASISRDGSTSYADTVKGRFTNTRDNAKNPVYLQMNSLKPEDTAVYYCNAGYNWYPLFDYWGQGTQVTVSS	high polyreactivity
